Experimental data published in PMC5261807 (2017).
Non-standard residues stand in square brackets, D forms with d. No end group written: not given here. Arg(Me2a) = CN(C)C(=N)NCCC[C@H](N)C(=O)O; Lys(Me3) = C[N+](C)(C)CCCC[C@H](N)C(=O)O; Arg(Me2s) = CN=C(NC)NCCC[C@H](N)C(=O)O; pT = C[C@@H](OP(=O)(O)O)[C@H](N)C(=O)O; Lys(Me2) = CN(C)CCCC[C@H](N)C(=O)O; Me2s = symmetric dimethyl (on Arg); pS = N[C@@H](COP(=O)(O)O)C(=O)O; Lys(Me) = CNCCCC[C@H](N)C(=O)O; Me3 = trimethyl (on Lys)

T1: Bdf1 bromodomain 1 (GST-tagged, WT) (Saccharomyces cerevisiae (strain ATCC …, UniProt P35817))
T1 chain: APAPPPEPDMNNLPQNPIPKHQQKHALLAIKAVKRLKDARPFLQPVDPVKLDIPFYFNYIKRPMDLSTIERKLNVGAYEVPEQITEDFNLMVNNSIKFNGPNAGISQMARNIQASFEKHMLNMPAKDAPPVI

T2: Bdf1 bromodomain 2 (GST-tagged, WT) (Saccharomyces cerevisiae (strain ATCC …, UniProt P35817))
T2 chain: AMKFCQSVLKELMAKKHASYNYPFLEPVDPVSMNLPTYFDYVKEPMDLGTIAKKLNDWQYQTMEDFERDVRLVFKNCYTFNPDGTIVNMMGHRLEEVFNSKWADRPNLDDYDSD

B1: c-myc tag (peptide)
chain: EQKLISEEDLA
modifications: histone peptides carry modifications given inline in the sequence and in columns 4-7 (Kac, Kme1/2/3, Rme2a/s, Cit, pS/pT); N-terminus free or acetylated
B2: H2a 1-19 (peptide)
chain: SGRGKQGGKARAKAKSRSS
modifications: histone peptides carry modifications given inline in the sequence and in columns 4-7 (Kac, Kme1/2/3, Rme2a/s, Cit, pS/pT); N-terminus free or acetylated

Target: T1, Bdf1 bromodomain 1 (GST-tagged, WT)
Test: histone peptide array probed with recombinant GST-bromodomain, signal normalised to myc peptide control

binding score	Binder
0.0484	ARTK(Me3)QTAR(Me2s)K(Ac)STGGKAPRKQ
0	PRKQLATKAARK[pS]APATGG [H3 16-35]
0.00681	A[Arg(Me2a)]TK(Ac)QTA[Arg(Me2s)][Lys(Me3)]STGGKAPRKQ
0.18	SGRGKGGKGLGKGGAKRHR (S G R G K G G Kac G L G Kac G G A K R H R)
0.0534	SGRGKGGKGLGKGGAKRHR (S G R G K G G Kac G L G K G G A Kac R H R)
1	B1
0	ARTKQTARKSTGGKAPRKQ (A Rme2s T Kme2 Q T A Rme2a Kme1 S T G G K A P R K Q)
0.00394	ARTKQTA[Arg(Me2s)][Lys(Me)][pS]TGGKAPRKQ
0.0518	ARTKQTARKSTGGKAPRKQ (A Rme2a T Kac Q T A Rme2s Kac S T G G K A P R K Q)
0.00108	ARTKQTARKSTGGK(Ac)APRKQ
0.126	SGRGKGGKGLGKGGAKRHR (pS G Rme2s G Kac G G Kac G L G K G G A K R H R)
0	A[Arg(Me2a)]T[Lys(Me3)]QTA[Arg(Me2s)][Lys(Me)]STGGKAPRKQ
0.0104	SGRGKQGGK(Ac)ARAK(Ac)AKSRSS
0.0124	ARTKQTARKSTGGKAPRKQ (A Rme2a T Kme1 Q T A Rme2a Kac S T G G K A P R K Q)
0	A[Arg(Me2s)]T[Lys(Me2)]QTAR[Lys(Me3)]STGGKAPRKQ
0	RKSAPATGGVKKPHRYRPG (R K S A P A T G G V Kme1 K P H R Y R P G) [H3 26-45]
0	PDPAK(Ac)SAPAPKK(Ac)GSKKAVT
0.00305	ARTKQTARKSTGGKAPRKQ (A R T K Q T A Rme2s Kme3 pS T G G K A P R K Q)
0.0217	ARTKQTARKSTGGKAPRKQ (A R T Kme1 Q T A Rme2a Kac S T G G K A P R K Q)
0.00412	PDPAK(Ac)SAPAPKKG[pS]KKAVT

binding score	Binder
0	ARTKQTARKSTGGKAPRKQ (A R T K Q T A R Kme3 S pT G G K A P R K Q)
0.0321	AR[pT]K(Ac)QTARKSTGGKAPRKQ
0.0301	ARTKQTARKSTGGKAPRKQ (A R T Kme2 Q T A Rme2s Kac S T G G K A P R K Q)
0	ARTKQTA[Arg(Me2s)]K(Me)S[pT]GGKAPRKQ
0.0405	ARTKQTARKSTGGKAPRKQ (A Rme2s T Kac Q T A Rme2s Kac S T G G K A P R K Q)
0	B2
0	A[Arg(Me2s)]T[Lys(Me2)]QTA[Arg(Me2s)][Lys(Me3)]STGGKAPRKQ
0	ARTKQTARKSTGGKAPRKQ (A Rme2a T Kme2 Q T A R Kme2 S T G G K A P R K Q)
0.000179	ARTKQTA[Arg(Me2s)][Lys(Me2)][pS]TGGKAPRKQ
0.00108	SGRGKGGKGLGKGGAKRHR (pS G R G Kac G G K G L G K G G A K R H R)
0	[pS]GRGK(Ac)QGGKARAK(Ac)AKSRSS
0.00663	ARTKQTA[Arg(Me2a)]K(Ac)[pS][pT]GGKAPRKQ
0.00161	A[Arg(Me2s)]TK(Ac)QTA[Arg(Me2a)][Lys(Me)]STGGKAPRKQ
0.00161	ARTKQTARKSTGGKAPRKQ (A Rme2s T Kme1 Q T A Rme2s Kme3 S T G G K A P R K Q)
0.29	SGRGKGGKGLGKGGAKRHR (S G Rme2a G Kac G G Kac G L G Kac G G A K R H R)
0	SGRGKGGKGLGKGGAKRHR (pS G R G K G G K G L G K G G A K R H R)
0.00108	ARTKQTARKSTGGKAPRKQ (A R T K Q T A R Kme2 pS T G G K A P R K Q)
0	A[Arg(Me2s)]TK(Me)QTARKSTGGKAPRKQ
0.0172	A[Arg(Me2s)]TK(Ac)QTARKSTGGKAPRKQ

Target: T2, Bdf1 bromodomain 2 (GST-tagged, WT)
Test: as above

binding score	Binder
0.0363	ARTK(Me3)QTAR(Me2s)K(Ac)STGGKAPRKQ
0	PRKQLATKAARK[pS]APATGG [H3 16-35]
0.00758	A[Arg(Me2a)]TK(Ac)QTA[Arg(Me2s)][Lys(Me3)]STGGKAPRKQ
0.258	SGRGKGGKGLGKGGAKRHR (S G R G K G G Kac G L G Kac G G A K R H R)
0.161	SGRGKGGKGLGKGGAKRHR (S G R G K G G Kac G L G K G G A Kac R H R)
1	B1
0	ARTKQTARKSTGGKAPRKQ (A Rme2s T Kme2 Q T A Rme2a Kme1 S T G G K A P R K Q)
0	ARTKQTA[Arg(Me2s)][Lys(Me)][pS]TGGKAPRKQ
0.0869	ARTKQTARKSTGGKAPRKQ (A Rme2a T Kac Q T A Rme2s Kac S T G G K A P R K Q)
0.0733	ARTKQTARKSTGGK(Ac)APRKQ
0.299	SGRGKGGKGLGKGGAKRHR (pS G Rme2s G Kac G G Kac G L G K G G A K R H R)
0	A[Arg(Me2a)]T[Lys(Me3)]QTA[Arg(Me2s)][Lys(Me)]STGGKAPRKQ
0.117	SGRGKQGGK(Ac)ARAK(Ac)AKSRSS
0.00325	ARTKQTARKSTGGKAPRKQ (A Rme2a T Kme1 Q T A Rme2a Kac S T G G K A P R K Q)
0	A[Arg(Me2s)]T[Lys(Me2)]QTAR[Lys(Me3)]STGGKAPRKQ
0.00364	RKSAPATGGVKKPHRYRPG (R K S A P A T G G V Kme1 K P H R Y R P G) [H3 26-45]
0.0186	PDPAK(Ac)SAPAPKK(Ac)GSKKAVT
0.00148	ARTKQTARKSTGGKAPRKQ (A R T K Q T A Rme2s Kme3 pS T G G K A P R K Q)
0.00915	ARTKQTARKSTGGKAPRKQ (A R T Kme1 Q T A Rme2a Kac S T G G K A P R K Q)
0	PDPAK(Ac)SAPAPKKG[pS]KKAVT

binding score	Binder
0	ARTKQTARKSTGGKAPRKQ (A R T K Q T A R Kme3 S pT G G K A P R K Q)
0.0271	AR[pT]K(Ac)QTARKSTGGKAPRKQ
0.0564	ARTKQTARKSTGGKAPRKQ (A R T Kme2 Q T A Rme2s Kac S T G G K A P R K Q)
0.00836	ARTKQTA[Arg(Me2s)]K(Me)S[pT]GGKAPRKQ
0.131	ARTKQTARKSTGGKAPRKQ (A Rme2s T Kac Q T A Rme2s Kac S T G G K A P R K Q)
0.0141	B2
0	A[Arg(Me2s)]T[Lys(Me2)]QTA[Arg(Me2s)][Lys(Me3)]STGGKAPRKQ
0	ARTKQTARKSTGGKAPRKQ (A Rme2a T Kme2 Q T A R Kme2 S T G G K A P R K Q)
0.00541	ARTKQTA[Arg(Me2s)][Lys(Me2)][pS]TGGKAPRKQ
0.069	SGRGKGGKGLGKGGAKRHR (pS G R G Kac G G K G L G K G G A K R H R)
0.231	[pS]GRGK(Ac)QGGKARAK(Ac)AKSRSS
0	ARTKQTA[Arg(Me2a)]K(Ac)[pS][pT]GGKAPRKQ
0.00384	A[Arg(Me2s)]TK(Ac)QTA[Arg(Me2a)][Lys(Me)]STGGKAPRKQ
0	ARTKQTARKSTGGKAPRKQ (A Rme2s T Kme1 Q T A Rme2s Kme3 S T G G K A P R K Q)
0.386	SGRGKGGKGLGKGGAKRHR (S G Rme2a G Kac G G Kac G L G Kac G G A K R H R)
0.00305	SGRGKGGKGLGKGGAKRHR (pS G R G K G G K G L G K G G A K R H R)
0	ARTKQTARKSTGGKAPRKQ (A R T K Q T A R Kme2 pS T G G K A P R K Q)
0	A[Arg(Me2s)]TK(Me)QTARKSTGGKAPRKQ
0.00482	A[Arg(Me2s)]TK(Ac)QTARKSTGGKAPRKQ
